Key:
Test in all cases: cell-based or functional assay
Ab1(T315I)(h) (human) = Ab1(T315I)(h) (human) (UniProt P00519)
[1] = molecular target: CDK7/cyclinH/MAT1(h) (human) (UniProt P50613)
CK1γ1(h) (human) = CK1γ1(h) (human) (UniProt Q9HCP0)
CK1γ2(h) (human) = CK1γ2(h) (human) (UniProt P78368)
CK1γ3(h) (human) = CK1γ3(h) (human) (UniProt Q9Y6M4)
CK2α2(h) (human) = CK2α2(h) (human) (UniProt P19784)
CLK2(h) (human) = CLK2(h) (human) (UniProt P49760)
CaMKIIβ(h) (human) = CaMKIIβ(h) (human) (UniProt Q13554)
DCAMKL2(h) (human) = DCAMKL2(h) (human) (UniProt Q8N568)
Chain of DCAMKL2(h) (human) (Q8N568 372-766 limits assumed): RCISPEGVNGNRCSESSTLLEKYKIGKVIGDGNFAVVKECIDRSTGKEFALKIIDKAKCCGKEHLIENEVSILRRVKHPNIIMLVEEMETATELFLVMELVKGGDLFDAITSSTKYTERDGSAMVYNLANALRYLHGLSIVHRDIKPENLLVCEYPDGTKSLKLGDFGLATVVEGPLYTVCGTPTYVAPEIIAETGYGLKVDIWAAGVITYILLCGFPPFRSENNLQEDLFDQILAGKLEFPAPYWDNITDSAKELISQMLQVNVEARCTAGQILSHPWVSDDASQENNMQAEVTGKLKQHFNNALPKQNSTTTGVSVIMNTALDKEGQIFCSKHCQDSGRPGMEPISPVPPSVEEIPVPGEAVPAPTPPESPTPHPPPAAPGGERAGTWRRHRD

EphA2(h) (human) = EphA2(h) (human) (UniProt P29317)
EphA4(h) (human) = EphA4(h) (human) (UniProt P54764)
FGFR1(V561M)(h) (human) = FGFR1(V561M)(h) (human) (UniProt P11362)
FGFR2(N549H)(h) (human) = FGFR2(N549H)(h) (human) (UniProt P21802)
Fgr(h) (human) = Fgr(h) (human) (UniProt P09769)
Flt3(h) (human) = Flt3(h) (human) (UniProt P36888)
Fms(Y969C)(h) (human) = Fms(Y969C)(h) (human) (UniProt P07333)
GRK5(h) (human) = GRK5(h) (human) (UniProt P34947)
Hck(h) (human) = Hck(h) (human) (UniProt P08631)
IGF-1R(h) (human) = IGF-1R(h) (human) (UniProt P08069)
IRAK1(h) (human) = IRAK1(h) (human) (UniProt P51617)
JNK1α1(h) (human) = JNK1α1(h) (human) (UniProt P45983)
MAPK1(h) (human) = MAPK1(h) (human) (UniProt P28482)
MKK7β(h) (human) = MKK7β(h) (human) (UniProt O14733)
MLK1(h) (human) = MLK1(h) (human) (UniProt P80192)
NEK2(h) (human) = NEK2(h) (human) (UniProt P51955)
NEK7(h) (human) = NEK7(h) (human) (UniProt Q8TDX7)
PAK6(h) (human) = PAK6(h) (human) (UniProt Q9NQU5)
PDGFRβ(h) (human) = PDGFRβ(h) (human) (UniProt P09619)
PDK1(h) (human) = PDK1(h) (human) (UniProt O15530)
Chain of PDK1(h) (human) (O15530 whole entry): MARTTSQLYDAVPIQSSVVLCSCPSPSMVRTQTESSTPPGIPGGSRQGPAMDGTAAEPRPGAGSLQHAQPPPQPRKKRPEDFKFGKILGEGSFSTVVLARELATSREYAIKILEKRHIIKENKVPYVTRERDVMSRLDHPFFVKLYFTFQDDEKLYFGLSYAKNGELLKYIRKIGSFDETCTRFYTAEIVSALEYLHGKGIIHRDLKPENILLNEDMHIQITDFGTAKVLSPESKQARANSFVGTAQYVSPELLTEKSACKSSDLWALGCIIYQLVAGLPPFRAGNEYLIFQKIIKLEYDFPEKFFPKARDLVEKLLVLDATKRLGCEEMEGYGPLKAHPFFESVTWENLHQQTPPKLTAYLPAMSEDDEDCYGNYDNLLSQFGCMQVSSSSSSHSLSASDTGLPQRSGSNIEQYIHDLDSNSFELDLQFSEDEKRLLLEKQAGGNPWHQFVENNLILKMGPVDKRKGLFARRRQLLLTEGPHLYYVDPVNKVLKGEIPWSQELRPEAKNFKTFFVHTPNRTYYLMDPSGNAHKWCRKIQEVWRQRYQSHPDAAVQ

PKCβI(h) (human) = PKCβI(h) (human) (UniProt P05771)
Chain of PKCβI(h) (human) (P05771 whole entry): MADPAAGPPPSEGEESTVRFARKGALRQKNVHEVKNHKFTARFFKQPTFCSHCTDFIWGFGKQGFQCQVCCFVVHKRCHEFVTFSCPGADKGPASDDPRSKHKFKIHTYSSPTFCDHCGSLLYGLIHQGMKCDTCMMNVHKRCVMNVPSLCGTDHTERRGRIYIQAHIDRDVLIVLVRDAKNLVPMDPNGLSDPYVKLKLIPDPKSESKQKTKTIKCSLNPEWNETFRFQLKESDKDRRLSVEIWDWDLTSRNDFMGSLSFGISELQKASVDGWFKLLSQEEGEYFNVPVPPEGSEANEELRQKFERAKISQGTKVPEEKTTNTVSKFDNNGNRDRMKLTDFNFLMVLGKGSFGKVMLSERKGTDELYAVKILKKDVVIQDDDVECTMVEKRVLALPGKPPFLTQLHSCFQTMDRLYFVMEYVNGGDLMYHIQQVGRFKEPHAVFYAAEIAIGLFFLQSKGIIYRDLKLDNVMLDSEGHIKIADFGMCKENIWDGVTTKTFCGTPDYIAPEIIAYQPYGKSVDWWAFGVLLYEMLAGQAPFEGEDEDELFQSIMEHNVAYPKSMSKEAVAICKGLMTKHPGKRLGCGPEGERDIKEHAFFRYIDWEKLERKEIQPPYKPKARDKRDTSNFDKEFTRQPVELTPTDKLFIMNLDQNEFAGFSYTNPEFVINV

PKCε(h) (human) = PKCε(h) (human) (UniProt Q02156)
Plk1(h) (human) = Plk1(h) (human) (UniProt P53350)
Rsk4(h) (human) = Rsk4(h) (human) (UniProt Q9UK32)
Chain of Rsk4(h) (human) (Q9UK32 whole entry): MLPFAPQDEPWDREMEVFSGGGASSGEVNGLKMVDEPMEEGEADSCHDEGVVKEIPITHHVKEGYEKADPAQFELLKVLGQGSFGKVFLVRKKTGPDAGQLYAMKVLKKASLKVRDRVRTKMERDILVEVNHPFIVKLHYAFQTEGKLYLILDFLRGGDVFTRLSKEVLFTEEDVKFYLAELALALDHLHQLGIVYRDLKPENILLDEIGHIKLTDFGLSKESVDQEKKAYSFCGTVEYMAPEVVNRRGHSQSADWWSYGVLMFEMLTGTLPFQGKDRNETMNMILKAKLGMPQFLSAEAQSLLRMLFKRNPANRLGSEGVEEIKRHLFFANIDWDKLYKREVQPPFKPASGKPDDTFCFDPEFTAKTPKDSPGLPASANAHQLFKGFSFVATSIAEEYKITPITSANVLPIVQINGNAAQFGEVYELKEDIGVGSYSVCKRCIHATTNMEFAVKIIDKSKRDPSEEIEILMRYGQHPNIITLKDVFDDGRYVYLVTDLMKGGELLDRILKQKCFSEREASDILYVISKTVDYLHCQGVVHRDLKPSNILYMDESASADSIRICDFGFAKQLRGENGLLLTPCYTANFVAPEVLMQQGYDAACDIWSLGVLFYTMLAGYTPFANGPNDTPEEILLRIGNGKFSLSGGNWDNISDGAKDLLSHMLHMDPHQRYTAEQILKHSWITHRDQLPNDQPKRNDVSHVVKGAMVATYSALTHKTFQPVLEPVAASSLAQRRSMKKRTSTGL

SGK3(h) (human) = SGK3(h) (human) (UniProt Q96BR1)
Chain of SGK3(h) (human) (Q96BR1 whole entry): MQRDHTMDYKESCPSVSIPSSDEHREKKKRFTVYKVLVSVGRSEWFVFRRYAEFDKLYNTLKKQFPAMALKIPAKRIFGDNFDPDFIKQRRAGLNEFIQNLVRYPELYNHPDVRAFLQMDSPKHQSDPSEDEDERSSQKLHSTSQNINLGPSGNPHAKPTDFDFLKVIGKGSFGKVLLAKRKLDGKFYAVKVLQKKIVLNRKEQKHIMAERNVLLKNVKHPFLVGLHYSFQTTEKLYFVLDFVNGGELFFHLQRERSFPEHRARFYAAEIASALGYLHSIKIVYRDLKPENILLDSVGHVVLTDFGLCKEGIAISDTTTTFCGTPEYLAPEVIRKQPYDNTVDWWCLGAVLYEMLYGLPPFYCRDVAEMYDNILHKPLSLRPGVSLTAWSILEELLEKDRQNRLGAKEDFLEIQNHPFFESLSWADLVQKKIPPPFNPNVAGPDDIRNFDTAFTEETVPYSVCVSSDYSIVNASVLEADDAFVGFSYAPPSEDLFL

TAK1(h) (human) = TAK1(h) (human) (UniProt O43318)
Tie2(R849W)(h) (human) = Tie2(R849W)(h) (human) (UniProt Q02763)
TrkA(h) (human) = TrkA(h) (human) (UniProt P04629)
VRK2(h) (human) = VRK2(h) (human) (UniProt Q86Y07)
Chain of VRK2(h) (human) (Q86Y07 whole entry): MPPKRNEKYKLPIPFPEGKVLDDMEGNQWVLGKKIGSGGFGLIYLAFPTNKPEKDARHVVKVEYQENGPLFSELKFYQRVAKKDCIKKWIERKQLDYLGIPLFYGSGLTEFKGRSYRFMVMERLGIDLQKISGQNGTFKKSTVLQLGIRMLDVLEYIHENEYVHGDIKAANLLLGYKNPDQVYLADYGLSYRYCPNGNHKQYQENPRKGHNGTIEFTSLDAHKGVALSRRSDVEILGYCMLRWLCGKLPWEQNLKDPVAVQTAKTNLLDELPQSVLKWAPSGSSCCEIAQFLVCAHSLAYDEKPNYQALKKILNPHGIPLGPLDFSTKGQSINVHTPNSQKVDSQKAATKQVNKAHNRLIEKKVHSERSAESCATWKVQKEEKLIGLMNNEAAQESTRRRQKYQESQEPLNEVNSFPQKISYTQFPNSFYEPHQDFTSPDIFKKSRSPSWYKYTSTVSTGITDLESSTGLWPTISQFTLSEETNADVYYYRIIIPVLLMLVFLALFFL

Yes(h) (human) = Yes(h) (human) (UniProt P07947)
p70S6K(h) (human) = p70S6K(h) (human) (UniProt P23443)
Chain of p70S6K(h) (human) (P23443 1-421 limits assumed): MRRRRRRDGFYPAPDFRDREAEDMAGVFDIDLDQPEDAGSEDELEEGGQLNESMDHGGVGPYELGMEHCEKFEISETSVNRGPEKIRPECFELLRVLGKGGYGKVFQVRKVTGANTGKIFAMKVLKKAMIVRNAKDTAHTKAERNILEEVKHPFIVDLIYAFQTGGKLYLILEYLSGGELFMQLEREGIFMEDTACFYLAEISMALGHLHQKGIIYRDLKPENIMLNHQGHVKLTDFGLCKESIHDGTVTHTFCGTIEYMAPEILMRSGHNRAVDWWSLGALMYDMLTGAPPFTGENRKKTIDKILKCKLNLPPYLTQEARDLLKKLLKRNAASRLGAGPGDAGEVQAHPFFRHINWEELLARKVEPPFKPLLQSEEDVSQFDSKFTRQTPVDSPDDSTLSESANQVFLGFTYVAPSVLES

PAK3(h) (human) = PAK3(h) (human) (UniProt O75914)

Chain of Ab1(T315I)(h) (human) (P00519 27-1130 T315I limits assumed): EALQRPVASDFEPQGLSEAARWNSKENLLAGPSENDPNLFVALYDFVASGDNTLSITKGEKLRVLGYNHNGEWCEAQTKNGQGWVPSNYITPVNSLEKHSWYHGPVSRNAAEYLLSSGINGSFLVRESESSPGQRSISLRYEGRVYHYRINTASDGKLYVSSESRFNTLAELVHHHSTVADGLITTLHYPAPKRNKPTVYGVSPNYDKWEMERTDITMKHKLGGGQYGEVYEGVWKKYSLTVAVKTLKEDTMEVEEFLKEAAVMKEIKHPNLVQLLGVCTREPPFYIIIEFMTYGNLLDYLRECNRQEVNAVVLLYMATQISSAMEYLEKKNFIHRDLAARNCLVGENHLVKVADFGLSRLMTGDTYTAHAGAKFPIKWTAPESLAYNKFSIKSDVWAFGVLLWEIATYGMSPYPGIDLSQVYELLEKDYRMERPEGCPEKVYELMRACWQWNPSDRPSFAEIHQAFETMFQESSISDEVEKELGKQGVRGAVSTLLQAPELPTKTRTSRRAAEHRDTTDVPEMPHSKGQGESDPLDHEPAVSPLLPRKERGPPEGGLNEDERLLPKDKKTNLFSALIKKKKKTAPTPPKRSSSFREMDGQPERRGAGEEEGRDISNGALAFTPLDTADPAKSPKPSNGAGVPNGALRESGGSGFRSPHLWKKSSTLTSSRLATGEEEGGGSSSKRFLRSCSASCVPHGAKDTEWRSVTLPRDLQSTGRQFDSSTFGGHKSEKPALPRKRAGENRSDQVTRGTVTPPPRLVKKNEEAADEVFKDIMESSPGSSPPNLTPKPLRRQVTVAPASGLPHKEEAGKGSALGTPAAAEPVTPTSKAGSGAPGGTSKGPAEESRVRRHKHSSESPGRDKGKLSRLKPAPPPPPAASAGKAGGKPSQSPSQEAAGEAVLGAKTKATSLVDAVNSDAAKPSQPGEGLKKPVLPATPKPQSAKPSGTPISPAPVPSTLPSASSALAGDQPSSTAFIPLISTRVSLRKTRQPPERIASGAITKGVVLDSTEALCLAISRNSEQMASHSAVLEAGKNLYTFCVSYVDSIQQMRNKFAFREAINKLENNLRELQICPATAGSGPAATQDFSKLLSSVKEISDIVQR

Substance	% activity (Ab1(T315I)(h) (human))	% activity [1]	% activity (CK1γ1(h) (human))	% activity (CaMKIIβ(h) (human))	% activity (DCAMKL2(h) (human))	% activity (EphA4(h) (human))	% activity (Flt3(h) (human))	% activity (Hck(h) (human))	% activity (IRAK1(h) (human))	% activity (MLK1(h) (human))	% activity (NEK2(h) (human))	% activity (NEK7(h) (human))	% activity (PDGFRβ(h) (human))	% activity (PDK1(h) (human))	% activity (PKCβI(h) (human))	% activity (PKCε(h) (human))	% activity (Rsk4(h) (human))	% activity (SGK3(h) (human))	% activity (VRK2(h) (human))	% activity (p70S6K(h) (human))	further results
MMI-0100 (peptide)	98%	89%	110%	58%	146%	110%	104%	354%	97%	77%	102%	97%	116%	144%	88%	102%	99%	95%	112%	89%	% activity (CK1γ2(h) (human)): 119%; % activity (CK1γ3(h) (human)): 105%; % activity (CK2α2(h) (human)): 104%; % activity (CLK2(h) (human)): 88%; % activity (EphA2(h) (human)): 58%; % activity (FGFR1(V561M)(h) (human)): 108%; % activity (FGFR2(N549H)(h) (human)): 95%; % activity (Fgr(h) (human)): 54%; % activity (Fms(Y969C)(h) (human)): 126%; % activity (GRK5(h) (human)): 117%; % activity (IGF-1R(h) (human)): 102%; % activity (JNK1α1(h) (human)): 91%; % activity (MAPK1(h) (human)): 108%; % activity (MKK7β(h) (human)): 137%; % activity (PAK6(h) (human)): 121%; % activity (Plk1(h) (human)): 109%; % activity (TAK1(h) (human)): 116%; % activity (Tie2(R849W)(h) (human)): 102%; % activity (TrkA(h) (human)): 74%; % activity (Yes(h) (human)): 49%
MMI-0200 (peptide)	108%	67%	98%	53%	131%	127%	99%	107%	101%	84%	97%	96%	137%	143%	98%	98%	125%	58%	109%	84%	% activity (CK1γ2(h) (human)): 104%; % activity (CK1γ3(h) (human)): 96%; % activity (CK2α2(h) (human)): 88%; % activity (CLK2(h) (human)): 97%; % activity (EphA2(h) (human)): 95%; % activity (FGFR1(V561M)(h) (human)): 72%; % activity (FGFR2(N549H)(h) (human)): 104%; % activity (Fgr(h) (human)): 71%; % activity (Fms(Y969C)(h) (human)): 88%; % activity (GRK5(h) (human)): 135%; % activity (IGF-1R(h) (human)): 49%; % activity (JNK1α1(h) (human)): 106%; % activity (MAPK1(h) (human)): 97%; % activity (MKK7β(h) (human)): 117%; % activity (PAK3(h) (human)): 50%; % activity (PAK6(h) (human)): 105%; % activity (Plk1(h) (human)): 128%; % activity (TAK1(h) (human)): 124%; % activity (Tie2(R849W)(h) (human)): 89%; % activity (Yes(h) (human)): 93%
MMI-0500 (peptide)	16%	15%		3%	56%	48%	17%	78%	5%	43%	0%	89%	40%	178%	1%	23%	29%	-3%	169%	3%	% activity (TrkA(h) (human)): 24%
